Consider 26 molecules from patent publication US20130310317A1 (Bristol-Myers Squibb, published 2013).

B1: 385E01 (designed binder)
chain: VSDVPRDLEVVAATPTSLLISWSARLKVARYYRITYGETGGNSPVQEFTVPKNVYTATISGLKPGVDYTITVYAVTAVRDYRPISINYRTHHHHHH
notes: FG loop optimized derivative of 338A06
B2: 386A05 (designed binder)
chain: B1 chain with A77E, V78R
notes: as for B1
B3: 387A09 (designed binder)
chain: B1 chain with A77M, V78S, R82G
notes: as for B1
B4: 387C02 (designed binder)
chain: B1 chain with A77G, D80N, R82G
notes: as for B1
B5: 386A07 (designed binder)
chain: B1 chain with A77L, D80N, R82G
notes: as for B1
B6: 385E04 (designed binder)
chain: B1 chain with A77E, V78L, D80N, R82G
notes: as for B1
B7: 385D05 (designed binder)
chain: B1 chain with A77R, V78E
notes: as for B1
B8: 387B01 (designed binder)
chain: B1 chain with A77S, V78L, R82G
notes: as for B1
B9: 339A01 (designed binder)
chain: B1 chain with A24T, R25A, A29Q, N53H, V54S, Y55H, A77K, V78M
notes: Optimized derivative of 218C04
B10: 338A05 (designed binder)
chain: VSDVPRDLEVVAATPTSLLISWSDSLKVSRYYRITYGETGGNSPVQEFTVPKQYHTATISGLKPGVDYTITVYAVTPSNIIGRHYGPISINYRTHHHHHH
notes: as for B9
B11: 354A10 (designed binder)
chain: VSDVPRDLEVVAATPTSLLISWSNRLVVKRYYRITYGETGGNSPVQEFTVPHQMKTATISGLKPGVDYTITVYAVTPGGYSGRNYGPISINYRTHHHHHH
notes: as for B9
B12: 353F10 (designed binder)
chain: VSDVPRDLEVVAATPTSLLISWPTHYKVARYYRITYGETGGNSPVQEFTVPKHTYTATISGLKPGVDYTITVYAVTTTKGLRHYGPISINYRTHHHHHH
notes: as for B9
B13: 386F10 (designed binder)
chain: B1 chain with A77L, V78L, R82G
notes: as for B1
B14: 386A03 (designed binder)
chain: B1 chain with A77N, V78L, R82G
notes: as for B1
B15: 385B04 (designed binder)
chain: B1 chain with V78Y, R82Q
notes: as for B1
B16: 385A09 (designed binder)
chain: B1 chain with A77R, V78I, R82G
notes: as for B1
B17: 386H05 (designed binder)
chain: B1 chain with A77V
notes: as for B1
B18: 387A03 (designed binder)
chain: B1 chain with A77S, V78Y, R82W
notes: as for B1
B19: 385H06 (designed binder)
chain: B1 chain with A77Q, V78L, R82S
notes: as for B1
B20: 385F08 (designed binder)
chain: B1 chain with A77S, V78L, R82A
notes: as for B1
B21: 386F11 (designed binder)
chain: B1 chain with A77L, V78T, R82K
notes: as for B1
B22: 386F01 (designed binder)
chain: B1 chain with A77T, V78I
notes: as for B1
B23: 354F11 (designed binder)
chain: B1 chain with S23G, A24K, R25H, K27V, A29Q, K52R, N53G, V54H, A77K, V78M
notes: as for B9
B24: 354G09 (designed binder)
chain: VSDVPRDLEVVAATPTSLLISWPQHLRVQRYYRITYGETGGNSPVQEFTVPRGSDTATISGLKPGVDYTITVYAVTKMRDYRPISINYRTHHHHHH
notes: as for B9
B25: 354G02 (designed binder)
chain: B10 chain with S23A, D24E, S25H, K27Q, K52R, Q53G, Y54V, H55Y
notes: as for B9
B26: 354F06 (designed binder)
chain: VSDVPRDLEVVAATPTSLLISWTTNLQVSRYYRITYGETGGNSPVQEFTVPKANTTATISGLKPGVDYTITVYAVTVSKGNRSYGPISINYRTHHHHHH
notes: as for B9

Changes are numbered by the printed parent chain. Where only a bound is given, the exact number is not on record here.

The first experiment addresses T1, recombinant human IGF-IR (human, UniProt P08069 31-932).
T1 construct: Bought (R&D Systems); also called insulin-like growth factor-I receptor; IGF-1R
The experiment in a line: direct binding ELISA on coated IGF-IR.
For B1, the binding result is on record as “binds”.

As for B2, the binding result is on record as “binds”.

Consider B3, for which the binding result was “binds”.

As for B4, the binding result was “binds”.

Consider B5, for which the binding result is given as “binds”.

In the case of B6, the binding result was “binds”.

For B7, the binding result is reported as “binds”.

The next experiment deals with T2, recombinant human insulin receptor (human, UniProt P06213-2 28-944, limits assumed).
T2 construct: Amine-coupled to a CM5 chip (8300 RU); also called IR
As to the kind of experiment: SPR (BIAcore), IR amine-coupled to chip. On the procedure:
(§1) In brief, 60 ug/mL of IR diluted in acetate 4.5 was coupled/immobilized to a level of 8300 RU and 11.9 ug/mL of VEGF-R2-Fc diluted in acetate 5.0 was immobilized to a level of 9700 RU on flow cells 2 and 3. A blank reference surface was prepared on FC 1. […] Fibronectin-based scaffold proteins were diluted to 10 uM in HBS-EP (10 mM Hepes 150 mM NaCl 3 mM EDTA 0.05% Surfactant P20) and injected at 20 uL/min for 3 minutes over the flow cells at 25 C and dissociation was observed over 10 mins.
As to B8, the binding result is “no binding (tested: 10 µM)”.

In the next experiment the target is T3, IGF-IR-Fc (human, UniProt P08069 31-932).
T3 construct: range 1-932; Made in house by transient transfection, captured on Protein A on CM5 chips for kinetic analysis; also called human IGF-IR-Fc fusion protein; recombinant, immobilized IGF-IR (BIAcore); not shown: hinge and constant regions of human IgG1
As to the kind of experiment: SPR (BIAcore); IGF-IR-Fc captured on Protein A, clone in solution. On the procedure:
One liter E. coli growths of selected optimized clones were prepared and the proteins were purified. Surface plasmon resonance (BIAcore) analysis was performed using recombinant, immobilized IGF-IR and solution-phase clones in order to determine binding kinetics and binding affinities.
(§2) The binding kinetics of fibronectin-based scaffold proteins binding proteins to the target was measured using BIAcore 2000 or 3000 biosensors (Pharmacia Biosensor). A capture assay was developed utilizing an IGF-IR-Fc fusion. A similar reagent had been described by Forbes et al. (Forbes et al. 2002, European J. Biochemistry, 269, 961-968). The extracellular domain of human IGF-IR (aa 1-932) was cloned into a mammalian expression vector containing the hinge and constant regions of human IgG1. Transient transfection of the plasmid produced a fusion protein, IGF-IR-Fc which was subsequently purified by Protein A chromatography and captured on Protein A immobilized on Biasensor CM5 chips by amine coupling. The kinetic analysis involved the capture of IGF-IR-Fc on Protein A followed by injection of the fibronectin-based scaffold protein in solution and regeneration of the Protein A surface by glycine pH 2.0. Sensorgrams were obtained at each concentration and were evaluated using a program Biaevaluation, BIA Evaluation 2.0 (BIAcore), to determine the rate constants kₐ (kₒₙ) and kd (koff) The dissociation constant, KD was calculated from the ratio of rate constants koff/kₒₙ. Typically, a concentration series (2 uM to 0 uM) of purified fibronectin-based scaffold protein was evaluated for binding to protein A captured human IGF-IR-Fc fusion protein.
With B9, the dissociation constant (Kd) stood at 0.565 nM, the koff turned out to be 0.00067 s⁻¹ and the kon is 1.2e+06 M⁻¹ s⁻¹.

On to B10, for which the affinity, expressed as Kd, was 0.261 nM; the koff worked out at 0.00033 s⁻¹; the on-rate constant (kon) stood at 1.3e+06 M⁻¹ s⁻¹.

B11: the dissociation constant Kd stood at 0.158 nM, the dissociation rate constant (koff) was found to be 0.00018 s⁻¹ and the on-rate (kon) stood at 1.1e+06 M⁻¹ s⁻¹.

B12 showed an equilibrium dissociation constant (Kd) of 0.056 nM, a koff of 0.00021 s⁻¹ and an association rate constant (kon) of 3.7e+06 M⁻¹ s⁻¹.

The target of another experiment is T3, IGF-IR-Fc. The experiment is described as above. The source holds these as a separate data set. On the procedure: BIAcore analysis was performed using recombinant, immobilized IGF-IR and solution-phase clones in order to determine binding kinetics and binding affinities.
as §2
B13 returned a Kd of 0.123 nM, a koff of 0.00023 s⁻¹ and a kon of 1.9e+06 M⁻¹ s⁻¹.

In turn, B8 had a Kd of 0.067 nM, a koff of 0.00044 s⁻¹ and a kon of 6.5e+06 M⁻¹ s⁻¹.

Turning to B14, binding was put at a Kd of 0.088 nM, the off-rate (koff) is 0.00046 s⁻¹ and the on-rate (kon) was 5.2e+06 M⁻¹ s⁻¹.

Another experiment addresses T2, recombinant human insulin receptor. The experiment in a line: SPR (BIAcore); IR amine-coupled to chip, clone at 10 µM, signal as % of insulin signal. The protocol:
One liter E. coli growths of selected optimized clones were prepared and the proteins were purified.
as §1
As to B9, the “% IR Binding at 10 µM” value is greater than 100%.

For B10, the “% IR Binding at 10 µM” value was 45%.

Turning to B11, the “% IR Binding at 10 µM” value was 1%.

Take B12: the “% IR Binding at 10 µM” value was determined as 1%.

The next experiment addresses T1, recombinant human IGF-IR. As to the kind of experiment: direct binding ELISA: plate coated with 10 nM IGF-IR, His-tagged clone detected with His-HRP probe, TMB, OD450. The protocol:
MaxiSorp™ plates (Nunc International, Rochester, N.Y.) were coated with 10 nM IGF-IR in PBS at 4° C. overnight followed by blocking in PBS-casein buffer (Pierce) for 3 hours at room temperature. Purified fibronectin-based scaffold proteins in casein buffer were bound to each well for 1 hour at room temperature at a concentration of 5 nM. The plate was washed with PBST and 100 μl of a 1:4000 dilution of His-HRP probe (Pierce) was added to each well with incubation for 15 min at room temperature. The wells were washed 5 times with PBST and the bound HRP was detected with TMB detection reagents (BD biosciences) according to the manufacturer's instructions.
With B15, the binding result is listed as “binds”.

For B16, the binding result is “binds”.

For B17, the binding result is given as “binds”.

Consider B18, for which the binding result is given as “binds”.

Regarding B19, the binding result is on record as “binds”.

For the molecule B8, the “EC50 (read off the curve)” value was roughly 1 nM.

As to B20, the 50% effective concentration (EC50 (read off the curve)) was roughly 0.9 nM.

With B21, the binding result is “binds”.

B22: the binding result is listed as “binds”.

A further experiment has as its target T1, recombinant human IGF-IR. As to the kind of experiment: competitive ELISA: plate coated with 30 nM IGF-IR, clone bound first, then 10 nM biotinylated IGF-I as the blocked ligand, streptavidin-HRP/TMB, OD450. The protocol: MaxiSorp™ plates (Nunc International, Rochester, N.Y.) were coated with 30 nM IGF-IR in PBS at 4° C. overnight followed by blocking in OptEIA buffer (BD biosciences, San Diego, Calif.) for 3 hours at room temperature. Purified fibronectin-based scaffold proteins in OptEIA buffer were bound to each well for 1 hour at room temperature at concentrations ranging from 50 pM to 1 μM. […] The excess ligand was removed by washing with PBST and bound ligand was detected with streptavidin-HRP (Pierce, Rockford, Ill.) using TMB detection reagents (BD biosciences) according to the manufacturer's instructions
As for B9, the “IC50 (read off the curve)” value was roughly 1 nM.

On to B23, for which the binding result is “binds”.

Regarding B24, the binding result is listed as “binds”.

With B25, the binding result was “binds”.

On to B26, for which the binding result was “binds”.

With B12, the “IC50 (read off the curve)” value was roughly 1 nM.
